Measured values reported in US20160017049A1 (Genentech, published 2016).

T1: huGPC(aa359-509) (HSV; human)
T1 construct: Expressed on the surface of 293 cells; not shown: C-terminal glycophosphatidylinositol anchor (GPI link)
T1 chain: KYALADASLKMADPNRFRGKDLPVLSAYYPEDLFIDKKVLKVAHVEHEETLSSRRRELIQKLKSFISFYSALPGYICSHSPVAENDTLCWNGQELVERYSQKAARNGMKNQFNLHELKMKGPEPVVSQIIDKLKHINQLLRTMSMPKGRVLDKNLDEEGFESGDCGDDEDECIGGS

T2: huGPC(aa359-559) (human, UniProt P51654 359-559)
T2 construct: Expressed on the surface of 293 cells
T2 sequence: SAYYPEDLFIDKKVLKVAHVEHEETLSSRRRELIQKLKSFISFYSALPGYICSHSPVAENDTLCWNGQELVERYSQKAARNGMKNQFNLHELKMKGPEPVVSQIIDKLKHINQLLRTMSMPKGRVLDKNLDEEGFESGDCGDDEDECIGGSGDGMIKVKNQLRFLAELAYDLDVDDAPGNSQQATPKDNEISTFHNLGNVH

T3: human GPC3 C-terminal fragment, amino acids 359 to 560, with GPI link (human, UniProt P51654 359-560)
T3 construct: also called huGPC(aa359-560); not shown: C-terminal glycophosphatidylinositol anchor (GPI link)
T3 sequence: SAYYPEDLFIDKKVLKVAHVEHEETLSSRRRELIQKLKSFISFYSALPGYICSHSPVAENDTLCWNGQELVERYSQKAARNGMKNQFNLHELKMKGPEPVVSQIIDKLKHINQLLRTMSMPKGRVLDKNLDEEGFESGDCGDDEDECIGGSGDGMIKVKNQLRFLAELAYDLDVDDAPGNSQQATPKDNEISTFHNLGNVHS

T4: huGPC(aa359-470) (HSV; human)
T4 construct: Expressed on the surface of 293 cells; not shown: C-terminal glycophosphatidylinositol anchor (GPI link)
T4 chain: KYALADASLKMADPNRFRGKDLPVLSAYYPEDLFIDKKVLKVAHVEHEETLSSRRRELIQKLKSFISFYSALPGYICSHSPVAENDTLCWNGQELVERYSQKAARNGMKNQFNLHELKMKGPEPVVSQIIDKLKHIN

B1: antibody 4A11 (antibody, human IgG1, kappa)
heavy: not shown
light: DIVMTQSPSSMYASLGERVTITCKASQDINSYLSWFQQKPGKSPKTLIYRVNRLVDGVPSRFSGSGSGQDYSLTISSLEYEDVGIYYCLQYDEFPLTLGAGTKLELKRTVAAPSVFIFPPSDEQLKSGTASVVCLLNNFYPREAKVQWKVDNALQSGNSQESVTEQDSKDSTYSLSSTLTLSKADYEKHKVYACEVTHQGLSSPVTKSFNRGEC
notes: also called 4A11 thio-HC A118C
B2: antibody 7H1 (antibody, V domains shown)
VH: QVQLQQSGPELVKPGASVKISCKASGYTFTDYYINWVKQKPGQGLEWIGWIYPGSGHTECNETFKGKATLTVDTSSSTAYMQLSSLTSEDTAVYFCTRGYYAPMGYFDYWGQGTTLTVSS
VL: DIQMTQSPSSLSASLGERVSLTCRASQEISGYLSWLQQKPDGTIKRLIYAASTLDSGVPKRFSGSRSGSDYSLTISGLESEDFADYYCLQYASYPYTFGGGTKLEIK
notes: Mouse monoclonal from Balb/c mice immunised with huGPC3 ECD-Flag
B3: antibody 4G7 (antibody, V domains shown)
VH: EVQLQQSGTVLARPGASVKMSCKASGYTFTSYWVHWVKQRPGQGLEWIGAIYPGNIDASYNQKFKGKAKLTAVTSTSTAYMELSSLTNEDSAVYYCSYDYDAWFVYWGQGTLVTVSA
VL: DIQMTQSHKFMSTSVGDRVSITCKASQDVSTAVAWYQQKPGQSPTLLIYSASYRYTGVPDRFTGSGSGTDFTFTISSVQAEDLAVYYCQQHYFTPRTFGGGTKLELK
B4: antibody 15G1 (antibody, human IgG1, kappa, V domains shown)
VH: EVQLLETGGGLVQPGGSRGLSCEGSGFTFSGFWMSWVRQTPGKTLEWIGDINSDGSSINYAPSIKDRFTIFRDNDKSILYLQMTNVRSEDTGTYFCVTTYGDYWGQGTTLTVSS
VL: DIVMTQSQKFMSTSVGDRVSVTCKASQNVGSHVGWYQQKSGQSPKALIYSASNRYIGVPDRFTGSGSGTDFTLTISNVQSEDLAEYFCQQYHIYPYTFGGGTRLEIKR
notes: also called 15G1 thio-HC A118C

Key:
huGPC(aa359-509) = target: T1, huGPC(aa359-509); assay: FACS on 293 cells expressing the gD-tagged fragment
Procedure: (§1) C-terminal truncation constructs of huGPC(aa359-589) were made to further refine the epitopes for antibodies 4A11 and 15G1. […] The three C-terminal truncations each comprised an HSV N-terminal signal sequence (SS) and gD sequence (SEQ ID NO: 41) and C-terminal glycophosphatidylinositol anchor (GPI link). The huGPC truncation constructs were expressed on the surface of 293 cells and antibody binding was determined by FACS. An anti-gD was used as a positive control. Vector-transfected 293 cells were used as a negative control.

huGPC(aa359-559) = target: T2, huGPC(aa359-559); assay: as above
Procedure: as §1

[1] = target: T3, human GPC3 C-terminal fragment, amino …; assay: FACS on 293S cells expressing the C-terminal fragment of GPC3
Source text: C-terminal truncation constructs of human GPC3 were made to further refine the epitopes for antibodies 7H1 and 4G7. […] The three C-terminal truncations each comprised the GPC N-terminal signal sequence (SS) and C-terminal glycophosphatidylinositol anchor (GPI link). […] See FIG. 7 (Santa Cruz Biotechnology antibody 1G12, which was raised to amino acids 511-580 of human GPC3, was used as a positive control for C-terminal fragment binding). Antibody 7H1 was reformatted as a chimeric antibody with human A118C cysteine-engineered IgG1 and Igκ constant regions (SEQ ID NOs: 42 and 43).

[2] = target: T5, human GPC3 N-terminal fragment, amino acids 25 to 358, with GPI link (human, UniProt P51654 25-358); assay: Western blot probed with 7H1, lysate of stably transfected cells
T5 construct: not shown: C-terminal glycophosphatidylinositol anchor (GPI link)
T5 sequence (P51654 25-358): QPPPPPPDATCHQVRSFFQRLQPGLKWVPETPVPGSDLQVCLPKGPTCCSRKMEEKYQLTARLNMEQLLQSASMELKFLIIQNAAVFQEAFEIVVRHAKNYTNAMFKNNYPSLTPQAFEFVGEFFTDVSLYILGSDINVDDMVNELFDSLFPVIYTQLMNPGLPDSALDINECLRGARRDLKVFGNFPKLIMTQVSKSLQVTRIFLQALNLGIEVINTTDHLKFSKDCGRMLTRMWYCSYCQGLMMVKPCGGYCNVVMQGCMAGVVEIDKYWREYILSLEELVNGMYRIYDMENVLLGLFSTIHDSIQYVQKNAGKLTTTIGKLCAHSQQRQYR

[3] = target: T6, human GPC3 C-terminal truncation, amino acids 25 to 247, with GPI link (human, UniProt P51654 25-247); assay: Western blot probed with 7H1, lysate of transiently transfected cells
T6 construct: not shown: C-terminal glycophosphatidylinositol anchor (GPI link)
T6 sequence (P51654 25-247): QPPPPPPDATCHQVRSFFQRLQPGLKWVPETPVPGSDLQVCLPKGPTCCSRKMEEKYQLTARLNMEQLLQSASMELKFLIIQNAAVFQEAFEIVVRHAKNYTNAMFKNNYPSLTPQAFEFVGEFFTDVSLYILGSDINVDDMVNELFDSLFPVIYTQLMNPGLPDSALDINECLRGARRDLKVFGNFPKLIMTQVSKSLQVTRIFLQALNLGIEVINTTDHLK

[4] = target: T7, human GPC3 C-terminal truncation, amino acids 25 to 137, with GPI link (human, UniProt P51654 25-137); assay: as above
T7 construct: not shown: C-terminal glycophosphatidylinositol anchor (GPI link)
T7 sequence (P51654 25-137): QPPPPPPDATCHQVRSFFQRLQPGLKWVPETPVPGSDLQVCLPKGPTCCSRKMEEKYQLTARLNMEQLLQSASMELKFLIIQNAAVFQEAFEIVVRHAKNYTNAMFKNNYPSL

huGPC(aa359-470) = target: T4, huGPC(aa359-470); assay: FACS on 293 cells expressing the gD-tagged fragment
Procedure: as §1

| Binder | binding result (huGPC(aa359-509)) | binding result (huGPC(aa359-559)) | binding result [1] | binding result [2] | binding result [3] | binding result [4] | binding result (huGPC(aa359-470)) |
| --- | --- | --- | --- | --- | --- | --- | --- |
| B1 | binds | binds |  |  |  |  |  |
| B2 |  |  | no binding | binds | binds | binds |  |
| B3 |  |  | no binding |  |  |  |  |
| B4 | binds | binds |  |  |  |  | binds |
